Patent US10457929B2
Read-outs that look alike come from different tables or passages of the source.

How the values were obtained:
[1] = biological target: peptic-tryptic-pancreatinic digest of wheat gliadin
[2] = biological target: peptic-tryptic-pancreatinic digest of wheat gliadin; remark: listed apart in the source
[3] = biological target: peptic-tryptic-pancreatinic digest of wheat gliadin; remark: listed apart in the source

Row | Substance | Protection Index (%) in RLL assay [1] [%] | other results
1 | Combination (1:1) of pig intestinal extract and crude caricain (pool or library) | 92 | –
2 | Fraction 4 from CM Sephadex C-50 ion exchange chromatography of papaya latex (pool or library) | – | Protection Index (%) in RLL assay [2]: 84%
3 | caricain (EC 3.4.22.30) (from UniProt P10056) (enzyme) | – | Protection offered against gliadin in RLL Assay [3]: 32.3%
4 | crude caricain (pool or library) | 71 | –
5 | pig intestinal enzyme extract (pool or library) | 61 | –
